Read-outs that look alike come from different tables or passages of the source.
Legend:
[1] = test system: Dnmt1 (Mus musculus); conditions: 14C-SAM incorporation; as efficient as Misu
[2] = target: Misu (full length, mouse) (Mus musculus) (UniProt Q1HFZ0); conditions: 14C-SAM incorporation, 37 C 1 h
[3] = target: Misu (full length, mouse) (Mus musculus) (UniProt Q1HFZ0); conditions: 14C-SAM incorporation, 37 C 1 h, DNase treated; about two fold without DNase

Chain of Misu (full length, mouse) (Mus musculus) (Q1HFZ0 whole entry): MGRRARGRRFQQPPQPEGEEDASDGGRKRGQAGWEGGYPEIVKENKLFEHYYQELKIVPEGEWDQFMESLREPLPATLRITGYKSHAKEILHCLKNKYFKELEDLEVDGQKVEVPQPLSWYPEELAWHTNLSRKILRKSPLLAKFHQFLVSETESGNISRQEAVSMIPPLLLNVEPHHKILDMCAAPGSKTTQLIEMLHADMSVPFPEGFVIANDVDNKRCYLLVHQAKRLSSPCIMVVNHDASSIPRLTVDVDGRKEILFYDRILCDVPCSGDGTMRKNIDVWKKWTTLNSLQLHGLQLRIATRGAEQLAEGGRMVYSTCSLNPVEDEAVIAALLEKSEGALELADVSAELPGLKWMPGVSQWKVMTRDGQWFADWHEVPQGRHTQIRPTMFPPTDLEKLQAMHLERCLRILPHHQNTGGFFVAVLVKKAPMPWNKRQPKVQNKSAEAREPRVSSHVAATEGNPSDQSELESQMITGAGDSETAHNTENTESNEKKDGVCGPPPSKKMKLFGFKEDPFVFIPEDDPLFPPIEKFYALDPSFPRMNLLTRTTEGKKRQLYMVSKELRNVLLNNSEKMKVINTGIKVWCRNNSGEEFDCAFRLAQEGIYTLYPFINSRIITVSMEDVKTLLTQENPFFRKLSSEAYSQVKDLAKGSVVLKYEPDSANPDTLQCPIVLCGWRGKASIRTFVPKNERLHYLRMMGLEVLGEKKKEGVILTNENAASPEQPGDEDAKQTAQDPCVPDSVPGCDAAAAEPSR

Substance	activity (fold over control) [1]	activity (fold over control) [2]	activity (fold over control) [3]	activity (fold over control) ([2]; 5mC on one strand (hemi-methylated), retained after RNase)
E. coli rRNA	2	2		
E. coli tRNA	2		3	
hemi-methylated double stranded oligonucleotide				2
